Data taken from US20220235118A1 (IMMUNOME, published 2022).

Assays:
[1] = biological target: T1, SARS-CoV-2 Spike RBD A475V (SARS-CoV-2, UniProt P0DTC2 319-541); assay: HTRF, soluble RBD construct
T1 construct: domain: RBD

[2] = biological target: T2, SARS-CoV-2 Spike RBD N501Y (SARS-CoV-2, UniProt P0DTC2 319-541); assay: HTRF, soluble RBD construct
T2 construct: domain: RBD

[3] = biological target: T3, SARS-CoV-2 Spike RBD E406Q (SARS-CoV-2, UniProt P0DTC2 319-541); assay: HTRF, soluble RBD construct
T3 construct: domain: RBD

[4] = biological target: T4, SARS-CoV-2 Spike RBD K417N (SARS-CoV-2, UniProt P0DTC2 319-541); assay: HTRF, soluble RBD construct
T4 construct: domain: RBD

[5] = biological target: T5, SARS-CoV-2 Spike RBD Y453F (SARS-CoV-2, UniProt P0DTC2 319-541); assay: HTRF, soluble RBD construct
T5 construct: domain: RBD

[6] = biological target: T6, SARS-CoV-2 Spike RBD A352S (SARS-CoV-2, UniProt P0DTC2 319-541); assay: HTRF, soluble RBD construct
T6 construct: domain: RBD

[7] = biological target: T7, SARS-CoV-2 Spike RBD N439K (SARS-CoV-2, UniProt P0DTC2 319-541); assay: HTRF, soluble RBD construct
T7 construct: domain: RBD

[8] = biological target: T8, SARS-CoV-2 Spike S1 domain K417N, E484K, N501Y, D614G (SARS-CoV-2, UniProt P0DTC2 16-685); assay: HTRF, soluble S1 construct
T8 construct: domain: S1; also called S. African (K417N, E484K, N501Y, D614G); B.1.351

[9] = biological target: T9, SARS-CoV-2 Spike S1 domain ΔHV69/70, ΔY144, N501Y, A570D, D614G, P681H (SARS-CoV-2, UniProt P0DTC2 16-685); assay: HTRF, soluble S1 construct
T9 construct: domain: S1; also called U.K. (B.1.1.7); DHV69/70, DY144, N501Y, A570D, D614G, P681H

[10] = biological target: T10, SARS-CoV-2 Spike S1 domain ΔHV69/70, Y453F, D614G (SARS-CoV-2, UniProt P0DTC2 16-685); assay: HTRF, soluble S1 construct
T10 construct: domain: S1; also called Denmark (ΔHV69/70, Y453F, D614G); DHV69/70, Y453F, D614G

[11] = biological target: T11, SARS-CoV-2 Spike S1 domain A222S, D614G (SARS-CoV-2, UniProt P0DTC2 16-685); assay: HTRF, soluble S1 construct
T11 construct: domain: S1; also called Spanish (A222S, D614G)

[12] = biological target: T12, SARS-CoV-2 Spike S1 domain D614G (SARS-CoV-2, UniProt P0DTC2 16-685); assay: HTRF, soluble S1 construct
T12 construct: domain: S1

Row | Binder | fold over background [1] [fold over background] | fold over background [2] [fold over background] | fold over background [3] [fold over background] | fold over background [4] [fold over background] | fold over background [5] [fold over background] | fold over background [6] [fold over background] | fold over background [7] [fold over background] | fold over background [8] [fold over background] | fold over background [9] [fold over background] | fold over background [10] [fold over background] | fold over background [11] [fold over background] | fold over background [12] [fold over background]
1 | PR201_00151 (antibody, V domains shown) VH: RVTLRESGPALVKPTQTLTLTCTFSGFSLNTSGMCVSWIRQPPGKALEWLARIDWDDDKYYSTSLETRLTISKDTSKNQVVLTMTNLDPVDTGTYYCARISIQSRGGGADYWGQGTLVTVSS VL: DIQMTQSPSSLSASVGDRVTITCRASQSISSYLHWYQQKSGKAPKLLIFVASTLQSGVPSRFSGSGSGTDFTLTISSLQPEDSAAYYCQQSYSPPWTFGQGTKVEIK | 5.7 | 6.16 | 8.3 | 1.09 | 5.48 | 7.06 | 6.03 | 1.05 | 4.22 | 6.53 | 7.29 | 7.25
2 | PR194_00292 (antibody, V domains shown) VH: QVQLQQWGAGLLKPSETLSLTCAVYGGSLSGYYWSWIRQPPGKGLEWIGEINHSGSTNHNPSLKSRVSISVDTSKNQFSLKLSSVTAADTAVYYCARAWKYSSSWYSGGIYYGMDVWGQGTTVTVSS VL: QSALTQPASVSGSPGQSITISCSGTSSDVGSYNLVSWYQQHPGKAPKLMIYEGTKRPSGVSNRFSSSKSGNTASLTISGLQAEDEADYYCCSYAGFSTWVFGGGTKLTVL | 1.02 | 0.996 | 0.967 | 1.03 | 0.974 | 0.94 | 1.06 | 2.26 | 2.37 | 2.59 | 1.02 | 1.06
3 | PR197_00647 (antibody, V domains shown) VH: QVQLVESGGGVVQPGRSLRLSCAASGFTFSSYAMHWVRQAPGKGLQWVTLISYDGGDKYYADSVRGRFTISRDNSKNTLYLQMNSLRTEDTAVYYCARDRPQTGDWFPPIPTGVLDVWGQGTTVTVSS VL: DIQMTQSPSSLSASVGDRVTITCRASQGISNYLAWFQQKPGKAPKSLIYAASSLQSGVPSRFSGSESGTDFTLTISSLQPEDFATYYCQQYHSYPITFGQGTRLEIK | 0.999 | 1.06 | 1.03 | 1.03 | 1.11 | 1.04 | 1.04 | 7.72 | 1.1 | 1.07 | 9.54 | 8.3
4 | PR196_00413_a (antibody, V domains shown) VH: QVQLVQSGAEVKKPGSSVKVSCKASGGTFSSYAITWVRQAPGQGLEWMGGIIPIFGTANYAQKFQGRVTITADESTSTAYMELSSLRSEDTAVYYCASDYGDSPLGYWGQGTLVTVSS VL: not shown | 1.01 | 1.08 | 1.02 | 1.06 | 1.06 | 1.07 | 1.07 | 9 | 6.39 | 9.68 | 8.74 | 9.92
5 | PR199_00255 (antibody, V domains shown, also called IMM20279; PR190_00255) VH: QVQLVESGGGVVQPGRSLRLSCAASGFTFSTYGMHWVRQAPGKGLEWVAVIWYNGINKHYADSVKGRFTISRDNSKNTLYLQMSSLRVEDTAVYYCARDWGTLTTLFDFWGQGTLVTVSS VL: DIQMTQSPSSLSASVGERATITCRASQSISSHLNWYQQKPGKAPKFLIYGASSLQSGVPSRFSGSGSGTDFTLTISSLQPEDFATYYCQQSYSTPPWTFGQGTKVEIK | 7.64 | 6.15 | 10.9 | 7.29 | – | 8.26 | 6.09 | 9.48 | 7.29 | 9.63 | 9.3 | 11.2
6 | PR194_00364_b (antibody, V domains shown) VH: EVQLVESGGGLVKPGGSLRLSCSASGFTFTTYTMNWVRQAPGKGLEWVSSISSTGLSIYYADSVKGRFTISRDNAKNSLYLQMNSLRAEDTAVYYCARDPSPTTIYYYYYMDVWGKGTTVTVSS VL: QSALTQPASVSGSPGQSITISCTGTSSDVGTYNLVSWYQHYPGKAPKLIIYEVSKRPSGVSDRFSGSKSGNTASLTISGLQAEDEADYYCCSYAGSTTGYVVFGGGTKLTVL | – | – | – | – | – | 0.917 | – | – | – | – | – | –
7 | PR194_00453 (antibody, V domains shown) VH: QLQLQESGPGLVKPSETLSLTCTVSGGSISSSSSYWGWFRQPPGKGLGWIRSIYYSGSTYYNPSLKSRVTMSVDTSKNQFSLKLSSVTAADTAVYYCARAKFSVWDNYRYPFDYWGQGILVTVSS VL: not shown | 1.06 | 1.03 | 0.99 | 1.1 | 0.987 | 1.11 | 1.05 | 9.57 | 9.06 | 9.45 | 9.21 | 9.55
8 | PR194_00068 (antibody, V domains shown) VH: EVQLLESGGGLVQPGGSLRLSCSASGFTFTNYAMSWVRQAPGKGLEWVSTISGSGGSTYYADSVKGRFTISRDNSKSTLFLQMNSLRAEDTAIYYCANSGPTGDLDYWGQGTLVTVSS VL: SYELTQPPSVSVSPGQTTLSLTCSGDKLGNKYVCWYQQKPGQSPVLVIYQDTKRPSGIPERVSGSNSGDTATLTISGTQAMDEADYYCQAWDSSTAVFGGGTKLTVL | – | – | – | – | – | – | 1.06 | – | – | – | – | –
